Experimental data reported in patent US20210230266A1 (SINGAPORE HEALTH SERVICES PTE, published 2021).

T1: Human IL-11 (human, UniProt P20809 22-199)
T1 construct: Recombinant human IL-11 (GenScript Cat. No. Z03108-1) or IL-11 secreted by human cells; the mature form is said to have 178 residues; also called recombinant human IL-11; endogenously produced IL-11
T1 sequence: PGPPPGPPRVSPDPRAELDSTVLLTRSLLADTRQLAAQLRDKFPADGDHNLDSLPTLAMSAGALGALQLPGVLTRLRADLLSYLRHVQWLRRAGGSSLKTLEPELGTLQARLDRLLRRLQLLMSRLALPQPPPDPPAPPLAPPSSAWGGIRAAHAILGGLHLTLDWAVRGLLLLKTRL

T2: Mouse IL-11 (mouse, UniProt P47873 22-199, limits assumed)
T2 construct: also called murine IL-11; recombinant murine IL-11
T2 sequence (looked up): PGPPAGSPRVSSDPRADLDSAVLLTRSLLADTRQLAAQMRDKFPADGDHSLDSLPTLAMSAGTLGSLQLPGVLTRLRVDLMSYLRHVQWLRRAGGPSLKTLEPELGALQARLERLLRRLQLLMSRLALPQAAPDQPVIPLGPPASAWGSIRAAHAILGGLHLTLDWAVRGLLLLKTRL

B1: YU100-G09 (antibody)
chain: EVQLVESGGGVVQPGRSLRLSCAASGFTFSSYGMHWVRQAPGKGLEWVAVISYDGSNKYYADSVKGRFTISRDNSKNTLYLQMNSLRAEDTAVYYCAKIGATDPLDYWGQGTLVTVSSGSASAPKLEEGEFSEARVQSALTQPRSVSGSPGQSVTISCTGTISDVGGYNYVSWYQQHPGKAPKLMIYDVTKRPSGVPDRFSGSKSGNTASLTISGLQAEDEAGYYCSSYAGSYTWVFGGGTKLTVL
B2: YU100-H06 (antibody)
chain: QVQLVESGGGVVQPGRSLRLSCAASGFTFSSYGMHWVRQAPGKGLEWVAVISYDGSNKYYADSVKGRFTISRDNSKNTLYLQMNSLRAEDTAVYYCAKIGATDPLDYWGQGTLVTVSSGSASAPKLEEGEFSEARIQSALTQPRSVSGSPGQSVTISCTGTSSDVGGYNYVSWYQQHPGKAPKLMIYDVTKRPSGVPDRFSGSKSGNTASLTISGLQAEDEADYYCSSYAGSYTWVFGGGTKLTVL
B3: YU112-A07 (antibody)
chain: QVQLVESGGGVVQPGRSLRLSCAASGFTFSSYGMHWVRQAPGKGLEWVAVISYDGSNKYYTDSVKGRFTISRDNSKNTLYLQMNSLRAEDTAVYYCAKIGATDPLDYWGQGTLVTVSSGSASAPKLEEGEFSEARVQSALTQPRSVSGSPGQSVTISCTGTISDVGGYNYVSWYQQHPGKAPKLMIYDVTKRPSGVPDRFSGSKSGNTASLTISGLQAEDEAGYYCSSYAGSYTWVFGGGTELTVL
B4: YU112-C05 (antibody)
chain: EVQLVESGGGVVQPGRSLRLSCAASGFTFSSYAMHWVRQAPGKGLEWVAVISYDGSNKYYADSVKGRFTISRDNSKNTLYLQMNSLRAEDTAVYYCARIMGYDYGDYDVVDYWGQGTLVTVSSGSASAPKLEEGEFSEARVQSALTQPRSVSGSPGQSVTISCTGTISDVGGYNYVSWYQQHPGKAPKLMIYDVTKRPSGVPDRFSGSKSGNTASLTISGLQAEDEAGYYCSSYAGSYTWVFGGGTELTVL
B5: YU100-H02 (antibody)
chain: QVQLQQSGGGVVQPGRSLRLSCAASGFTFSSYGMHWVRQAPGKGLEWVAVISYDGSNKYYADSVKGRFTISRDNSKNTLYLQMNSLRAEDTAVYYCARIMGYDYGDYDVVDYWGQGTLVTVSSGSASAPKLEEGEFSEARVQSALTQPRSVSRSPGQSVTISCTGTSSDVGTYNYVSWYQQHPGKAPKLMIYDVSKRPSGVPDRFSGSKSGNTASLTISGLQAEDEADYYCCSYAGFYTWVFGGGTKLTVL
B6: YU100-H04 (antibody)
chain: QVQLVESGGGVVQPGRSLRLSCAASGFTFSSYAMHWVRQAPGKGLEWVAVISYDGSNKYYADSVKGRFTISRDNSKNTLYLQMNSLRAEDTAVYYCARIMGYDYGDYDVVDYWGQGTLVTVSSGSASAPKLEEGEFSEARVQSALTQPASVSGSPGQSITISCTGTSSDIGVYNYVSWYQQHPGKAPKLMIYDVSKRPSGVPDRFSGSKSGNTASLTISGLQAEDEADYYCCSYAGSYTWVFGGGTKLTVL
B7: YU100-H09 (antibody)
chain: QVQLVQSGGGVVQPGRSLRLSCAASGFTFSSYAMHWVRQAPGKGLEWVAVISYDGSNKYYADSVKGRFTISRDNSKNTLYLQMNSLRAEDTAVYYCARIMGYDYGDYDVVDYWGQGTLVTVSSGSASAPKLEEGEFSEARVQSALTQPASVSGSPGQSITISCTGTSSDVGGYNYVSWYQQHPGKAPKLMIYDVSNRPSGVSNRFSGSKSGNTASLTISGLQAEDEADYYCCSYAGSYTWVFGGGTKLTVL
B8: YU112-C03 (antibody)
chain: QVQLVESGGGVVQPGRSLRLSCAASGFTFSSYGMHWVRQAPGKGLEWVAVISYDGSNKYYADSVKGRFTISRDNSKNTLYLQMNSLRAEDTAVYYCAKGGKSYYGFDYWGQGTLVTVSSGSASAPKLEEGEFSEARVDSVMTQSPSSLSASVGDRVTITCRASQAINSYLNWYQQKPGKAPKLLIYAASSLQSGVPSRFSGSGSGTDFTLTISGLQPEDFATYYCQQSYSTPSWTFGQGTKVEIK
B9: YU100-G07 (antibody)
chain: QVQLVESGGGVVQPGRSLRLSCAASGFTFSSYGMHWVRQAPGKGLEWVAVISYDGSNKYYADSVKGRFTISRDNSKNTLYLQMNSLRAEDTAVYYCAKIGATDPLDYWGQGTLVTVSSGSASAPKLEEGEFSEARVQSALTQPASVSGSPGQSITISCTGTSSDVGAYDYVSWYQQHPGKAPKLMIYDVTNRPSGVSNRFSGSKSGNTASLTISGLQAEDEADYYCASYTRSSVWVFGGGTKLTVL
B10: YU112-B06 (antibody)
chain: QVQLVESGGGVVQPGRSLRLSCAASGFTFSSYGMHWVRQAPGKGLEWVAVISYDGSNKYYADSVKGRFTISRDNSKNTLYLQMNSLRAEDTAVYYCAKIGATDPLDYWGQGTLVTVSSGSASAPKLEEGEFSEARVQSALTQPASVSGSPGQSITISCTGTSSDVGGYNYVSWYQQHPGKAPKLMIYDVSNRPSGVSNRFSGSKSGNTASLTIFGLQAEDEADYYCSSYTSSSSWVFGGGTKLTVL
B11: YU100-H11 (antibody)
chain: QVQLVQSGGGVVQPGRSLRLSCAASGFTFSSYGMHWVRQAPGKGLEWVAVISYDGSNKYYADSVKGRFTISRDNSKNTLYLQMNSLRAEDTAVYYCAKIGATDPLDYWGQGTLVTVSSGSASAPKLEEGEFSEARVQSALTQPASVSGSPGQSITISCTGTSSDVGGYNYVSWYQQHPGKAPKLMIYDVSNRPSGVSNRFSGSKSGNTASLTISGLQAEDEADYYCCSYAGSYTWVFGGGTKLTVL
B12: YU100-H05 (antibody)
chain: QVQLVESGGGVVQPGRSLRLSCAASGFTFSSYGMHWVRQAPGKGLEWVAVISYDGSNKYYADSVKGRFTISRDNSKNTLYLQMNSLRAEDTAVYYCAKIGATDPLDYWGQGTLVTVSSGSASAPKLEEGEFSEARVQAVLTQPRSVSGSPGQSITISCTGTGSNVGGYNYVSWYQQHPGQAPKLMIYDVSKRPSGVPDRFSGSKSGNTASLTISGLQAEDEADYYCCSYAGTYTWVFGGGTKLTVL

Key:
Human IL-11 [1] = molecular target: T1, Human IL-11; assay: ELISA
Description: (§1) The soluble scFv were produced by recombinant expression in E. coli, and analysed for their ability to bind to human IL-11 and murine IL-11 by ELISA. Briefly, the respective antigen was coated to wells of an ELISA plate, the cell culture supernatant containing the respective scFv was added at a 1:2 dilution, and binding was detected.

Mouse IL-11 = molecular target: T2, Mouse IL-11; assay: ELISA
Description: as §1

Human IL-11 [2] = molecular target: T1, Human IL-11; assay: cell-based or functional assay
Human IL-11 [3] = molecular target: T1, Human IL-11; assay: ELISA on coated recombinant human IL-11 (100 ng/well), scFv-Fc
Description: The light chain shuffled anti-IL-11 antibodies were analysed to determine the EC50 for binding to human IL-11 by ELISA according to standard methods. Briefly, wells of microtiter plates were coated with recombinant human IL-11 (100 ng/well), scFv-Fc comprising the VH and VL domains of the clones were added in a dilution series and antibody binding was detected using a polyclonal antibody detection system.

Binder | hIL11 - average signal (Human IL-11 [1]) | mIL11 - average signal (Mouse IL-11) | MMP2 production, Experiment 1 (human atrial fibroblasts + TGFB1) (Human IL-11 [2]) [ng/mL] | MMP2 production, Experiment 2 (human atrial fibroblasts + TGFB1) (Human IL-11 [2]) [ng/mL] | EC50 (Human IL-11 [3]) [µg/mL]
B1 | 0.802 | 0.985 | 59.9 | 47.5 | 0.014
B2 | 0.181 | 0.328 | 52.3 | 43.9 | 0.013
B3 | 0.438 | 0.612 | 50.7 | 45 | 0.025
B4 | 0.458 | 0.685 | 55.2 | 50.1 | 0.012
B5 | 0.309 | 0.188 | 57.5 | 51.3 | 0.032
B6 | 0.508 | 0.393 | 58.5 | 48.7 | 0.027
B7 | 0.4 | 0.668 | 52.9 | 39.6 | 0.028
B8 | 0.566 | 0.445 | 57.6 | 53.3 | 0.017
B9 | 0.203 | 0.206 | 59 | 49.7 | 0.018
B10 | 0.756 | 0.622 | 49.7 | 43.9 | 0.02
B11 | 0.724 | 0.629 | 53.7 | 45.5 | 0.015
B12 | 0.163 | 0.461 | 57.1 | 47.8 | 0.022
